How the values were obtained:
[1] = tested on: splenocytes (IFNγ secretion); experiment: ELISPOT-IFNγ on splenocytes of β/A2/DR3 mice vaccinated with FOXM1-B2 (Example 12); type: in vivo, mouse
Experimental: Briefly, 15 β/A2/DR3 mice were immunized with a specific vaccination peptide (vacc-pAg) combined to a common helper peptide (h-pAg) (as outlined in Table 14 below). The vacc-pAg were compared in couples (group 1 vs. group 2). Thereby, both native and optimized versions of a single peptide were compared in each wave.
The animals were immunized on day 0 (d0) with a prime injection, and on d14 with a boost injection. Each mouse was injected s.c. at tail base with 100 μL of an oil-based emulsion that contained:
100 μg of vacc-pAg (25 μL of 4 mg/mL stock per mouse);
150 μg of h-pAg (15 μL of 10 mg/mL stock per mouse);
10 μL of PBS to reach a total volume of 50 μL (per mouse);
Incomplete Freund's Adjuvant (IFA) added at 1:1 (v:v) ratio (50 μL per mouse).
Seven days after the boost injection (i.e., on d21), the animals were euthanized and the spleen was harvested. Splenocytes were prepared by mechanical disruption of the organ followed by 70 μm-filtering and Ficoll density gradient purification.
The splenocytes were immediately used in an ELISPOT-IFNγ assay (Table 15). […]
(§1) Spots were counted on a Grand ImmunoSpot® S6 Ultimate UV Image Analyzer interfaced to the ImmunoSpot 5.4 software (CTL-Europe). […]

[2] = target: T1, HLA-A*0201 (Homo sapiens, UniProt P04439, D140Y/D185E/D98H/E176V/E277Q/G131W/G231S/I119V/I121R/I166T/I218V/L300P/L318F/N151K/N90K/P208A/P217A/Q86G/Q94H/R138H/R169H/T345S); experiment: In vitro affinity of peptides to HLA-A*0201 on T2 cell line (FACS, anti-HLA-A2 labeling); type: cell-based; conditions: T2 cells; for Binding to HLA-A*0201 (in words): in vitro; for Mean fluorescence intensity: 16 hours
T1 construct: human tumoral cell T2 which expresses the HLA-A*0201 molecule; endogenous in cells; host or cells: T2 cells (human, TAP1/2 negative)
Excerpt: A method for in vitro testing is well-known to the skilled person. For example, the skilled person may use the experimental protocol as validated for peptides presented by HLA-A*0201 in Tourdot et al., A general strategy to enhance immunogenicity of low-affinity HLA-A2.1-associated peptides: implication in the identification of cryptic tumor epitopes. Eur J Immunol. 2000 December; 30(12):3411-21. In this context, a reference peptide, such as HIV pol 589-597, may be additionally used in the test. This enables calculation of the in vitro affinity relative to the binding observed with the reference peptide, e.g. by the following equation:
Relative affinity=concentration of each peptide inducing 20% of expression of HLA-A*0201/concentration of the reference peptide inducing 20% of expression of HLA-A*0201
(where 100% is the level of HLA-A*0201 expression detected with the reference peptide, e.g. HIV pol 589-597, for example used at a 100 μM concentration).
The experimental protocol is similar to the one that was validated for peptides presented by the HLA-A*0201 (Tourdot et al., A general strategy to enhance immunogenicity of low-affinity HLA-A2.1-associated peptides: implication in the identification of cryptic tumor epitopes. Eur J Immunol. 2000 December; 30(12):3411-21). Affinity measurement of the peptides is achieved with the human tumoral cell T2 which expresses the HLA-A*0201 molecule, but which is TAP1/2 negative and incapable of presenting endogenous peptides.
(§2) T2 cells (2.10^5 cells per well) were incubated with decreasing concentrations of peptides from 100 μM to 0.1 μM in a AIMV medium supplemented with 100 ng/μl of human β2m at 37° C. for 16 hours. Cells were then washed two times and marked with the anti-HLA-A2 antibody coupled to PE (clone BB7.2, BD Pharmagen).
The analysis was performed by FACS (Guava Easy Cyte). For each peptide concentration, the geometric mean of the labeling associated with the peptide of interest was subtracted from background noise and reported as a percentage of the geometric mean of the […] labeling obtained for the reference peptide HIV pol 589-597 at a concentration of 100 μM. The relative affinity is then determined as follows:
relative affinity=concentration of each peptide inducing 20% of expression of HLA-A*0201/concentration of the reference peptide inducing 20% of expression of HLA-A*0201.
The experimental protocol, materials and methods correspond to those outlined in Example 4, with the only difference that the above mentioned antigenic peptides were used.
as §2, with “β2 m” for “β2m”

[3] = tested on: splenocytes (IFNγ secretion); experiment: ELISPOT-IFNγ on splenocytes of HHD DR3 and HHD DR1 mice vaccinated with IL13RA2-BL (Example 15); type: in vivo, mouse
Experimental: Mice were immunized with a specific vaccination peptide (vacc-pAg) combined to a common helper peptide (h-pAg).
The peptides were provided as follows: • vacc-pAg: IL13RA2-BL; all produced and provided at a 4 mg/ml (4 mM) concentration; • h-pAg: HHD-DR3 peptide (SEQ ID NO: 32); for immunization of β/A2/DR3 HHDDR3 mice provided at a 4 mg/ml (4 mM) concentration • h-pAg: UCP2 peptide (SEQ ID NO: 159); for immunization of β/A2/DR1 HHDDR1 mice provided at a 4 mg/ml (4 mM) concentration
The animals were immunized on day 0 (d0) with a prime injection, and on d14 with a boost injection. Each mouse was injected s.c. at tail base with 100 μL of an oil-based emulsion that contained: • 100 μg of vacc-pAg (25 μL of 4 mg/mL stock per mouse); • 150 μg of h-pAg (15 μL of 10 mg/mL stock per mouse); • 10 μL of PBS to reach a total volume of 50 μL (per mouse); • Incomplete Freund's Adjuvant (IFA) added at 1:1 (v:v) ratio (50 μL per mouse).
Seven days after the boost injection (i.e. on d21), the animals were euthanized and the spleen was harvested. Splenocytes were prepared by mechanical disruption of the organ followed by 70 μm-filtering and Ficoll density gradient purification.
The splenocytes were immediately used in an ELISPOT-IFNγ assay (Table 21). […]
as §1

| Sequence | T cell responses in the ELISPOT-IFNγ assay (in words) ([1]; β/A2/DR3 mice vaccinated with FOXM1-B2 (100 μg) + HHD-DR3 + IFA, d0 and d14) | Activation of T cells after ex vivo re-stimulation with human FOXM1-H2 (in words) ([1]; β/A2/DR3 mice vaccinated with FOXM1-B2, re-stimulation FOXM1-H2 10 μM) | Concentration inducing 20% of expression of the HLA-A*0201 [2] [µM] | Binding to HLA-A*0201 (in words) [2] | Mean fluorescence intensity ([2]; peptide at 3 μM) | Mean fluorescence intensity ([2]; peptide at 25 μM) | Mean fluorescence intensity ([2]; peptide at 100 μM) | % of maximum HIV pol 589-597 binding activity ([2]; peptide at 6.25 μM) [%] | % of maximum HIV pol 589-597 binding activity ([2]; peptide at 25 μM) [%] | % of maximum HIV pol 589-597 binding activity ([2]; peptide at 100 μM) [%] | Response of splenocytes, ELISPOT-IFNγ (in words) ([3]; HHD DR3 and HHD DR1 mice immunized with IL13RA2-BL + helper + IFA, stimulation with IL13RA2-BL) | Immune response against human peptide IL13RA2-HL (in words) ([3]; mice immunized with IL13RA2-BL, stimulation with human peptide) |
| --- | --- | --- | --- | --- | --- | --- | --- | --- | --- | --- | --- | --- |
| LMDLSTTEV (Sequence variant) [SEQ ID NO: 75] | induced strong T cell responses | efficient activation of T cells could be observed | 6.7 | bind | 12.7 | 98.2 | 105 |  |  |  |  |  |
| FLPFGFILPV (Sequence variant) [SEQ ID NO: 139] |  |  |  | strong binding affinity |  |  |  | 43 | 96 | 69 | strong response of splenocytes | effective immune response |

Reference: patent US20200256877A1, “Microbiota Sequence Variants Of Tumor-Related Antigenic Epitopes” (ENTEROME S.A., priority 2017, published 2020)
